Measured values: US5753621A, “Pulmonary surfactant protein fragments” (Abbott Laboratories, priority 1995, dated 1998)

Key:
Assay type in all cases: physicochemical
[1] = Dynamic surface tension versus compressed surface area, modified Wilhelmy Surface Balance (Langmuir Trough); conditions: peptide 0.5 mg/ml (~2% of solids) in DPPC:PG:PA 68:22:9; 675 ug phospholipid on 445 sq. cm trough; recorded during seven complete cycles
Description: (§1) Prior to testing for surface activity, the synthetic fragments were admixed with lipids. A lipid mixture consisting of 68% 1,2-dipalmitoyl-sn-phosphatidylcholine (DPPC), 22% egg phosphatidylglycerol (PG) and 9% palmitic acid on a weight basis was prepared by dissolving the lipids in chloroform:methanol (2:1). The required amount of peptide fragment was dissolved in methanol and heated to 60° C. for 10 minutes. The peptide solution was then added to the lipid mixture prewarmed to 45° C. for ten minutes. The samples were mixed at 45° C. by gentle swirling at 100 revolutions per minute on a Buchi rotary evaporator. The organic solvents were then evaporated at 45° C. by increasing the vacuum in 100 torr increments every five minutes until most of the solvent was removed. Final vacuum was between 150-200 torr. Following evaporation, the solids were then suspended in 10% ethanol prewarmed to 45° C. and which was prepared using deionized distilled water. The suspension was gently mixed with vortexing and placed back under vacuum at 600 torr with a repeat of the vacuum ramping process. Final vacuum for the ethanol removal was 50 torr. Following complete removal of ethanol the suspension was diluted with aqueous 0.15M NaCl at 45° C. to yield an admixture with a phospholipid concentration of 25 mg/ml. The peptide/lipid admixtures were formed at final peptide concentrations of 0.5 mg/ml (equivalent to 2% of solids concentration).
The dynamic surface tension lowering properties of the peptide/lipid admixtures were studied using a modified Wilhelmy Surface Balance (Langmuir Trough). The instrument consists of an all Teflon trough and movable Teflon ribbon (dam) barrier system which completely contains and defines a variable surface area. Surface area was varied through the use of a constant rate reversible 3-phase motor to drive the Teflon barrier. A Cahn 2000 electrobalance (Cahn Instruments, Cerittos, Calif.) with a sandblasted 1 cm platinum plate and stainless steel hangdown wire was employed to determine the surface tension at the liquid-air interface. The entire apparatus was situated in a thermostated incubator set at 45° C. Surface area-surface tension measurements were made by adding 950 ml of 0.15M NaCl to the trough. Subphase temperature was controlled during the measurements at 36°-38° C.
For each experiment 27 ul of peptide/lipid admixture was applied in a random array of 13 droplets to the surface of the temperature controlled subphase and allowed to spread spontaneously for 3 minutes. (The 27 ul application corresponds to 675 ug of phospholipid). The trough surface area was then cycled from a maximum (445 sq. cm) to a minimum (178 sq. cm) surface area and back to maximum at a cycling rate of 3 cycles/min (compression ratio 2.5:1). The dynamic surface tension versus surface area was recorded for 7 complete compression-expansion cycles for each application.

[2] = Pulsating Bubble Surfactometer (PBS) surface tension; conditions: after 5 minutes pulsation (100 cycles); 1 mg/ml phospholipid, peptide 2% of phospholipids; 0.15M NaCl; 37° C.; 20 cycles/minute; SD in parenthesis
Description: as §1
The PBS equipment (Electronetics, Buffalo, N.Y.) used was essentially equivalent to that described in detail by G. Enhorning, J. Appld. Physiol. 43, 198-203, (1977). Recordings were made of the pressure gradient across the wall of a small air bubble, communicating with ambient air by means of a narrow chimney stack, but otherwise entirely surrounded by a 40 ul volume of the peptide/lipid admixture. The admixture concentration employed for these studies was 1 mg/ml total phospholipid (0.02 mg/ml total peptide) and the diluent was 0.15M NaCl.
Immediately prior to loading the sample chamber, the diluted samples were sonicated for 15 seconds to remove any gas nuclei.
The pressure drop across the air-water interface was measured during pulsation by a pressure transducer, and the corresponding surface tension was determined at minimum and maximum bubble size through the application of Young's law and the Laplace equation. Measurements were all made at 37° C. and the bubble pulsed at 20 cycles/minute to render respectively a maximum (1.1 mm) and a minimum (0.8 mm) bubble diameter. (This compression/expansion corresponds to a 50% change in the surface area of the air-water interface).

[3] = Relative surface activity by dilution studies on the modified Wilhelmy Balance-Langmuir Trough; conditions: 675 ug phospholipid; for Mean Minimum Surface Tension, relative peptide concentration 1/2: 1/2 dilution of equimolar stock with lipid mixture; for Mean Minimum Surface Tension, relative peptide concentration 1/4: 1/4 dilution of equimolar stock with lipid mixture; for Mean Minimum Surface Tension, relative peptide concentration 1/8: 1/8 dilution of equimolar stock with lipid mixture; for Mean Minimum Surface Tension, relative peptide concentration Equimolar: equimolar to 0.5 mg/mL SP-B(53-78); for Mean Minimum Surface Tension, relative peptide concentration Equimolar / Mean Minimum Surface Tension, relative peptide concentration 2%: 445 sq. cm trough; for Mean Minimum Surface Tension, relative peptide concentration 2%: peptide 2% of solids (0.5 mg/ml)
Description: For the purpose of this comparison "surface activity" is defined as follows: For any given peptide concentration, the admixture is required to result in a minimum dynamic surface tension of less than 10 dynes/cm for each of seven consecutive expansion/compression cycles.
Initially each of the admixtures was formulated so as to contain an equal number of moles of the individual peptide as is contained in a 0.5 mg/mL admixture of SP-B(53-78). […] Thereafter, each of these admixtures was diluted with the standard lipid mixture as described in Example 4, so as to provide doubling dilutions of the equimolar "parent" stock peptide admixture. The lipid concentration in all cases was maintained at 25 mg/ml.
Assessment of relative surface activity was conducted on the modified Wilhemy-Langmuir Surface Balance. For these studies a standard volume of 27 ul of each admixture, corresponding to a total phospholipid mass of 675 ug, was applied to the Langmuir Trough with maximum dimensions of 445 sq. cm.

[4] = Adsorption capacity, modified Wilhelmy surface balance; conditions: measured after three (3) minutes spreading time; peptide 0.5 mg/ml (~2% of solids)
Description: as §1
A procedure similar to that described by Notter, et al., Pediatric Res. 16, 515-519 (1982) was employed to determine the absorption rate in the absence of diffusion resistance. The modified Wilhelmy surface balance as described above was used. However, instead of using a Langmuir trough, a round Teflon dish (5.1 cm diameter) was employed. The subphase, 70 ml of 0.15M NaCl, was allowed to equilibrate to 37° C. in the incubator and was continuously stirred with a Teflon coated magnetic stirrer. An aliquot of the peptide/lipid fragment admixture containing 5 mg of total phospholipid was dispersed in 10 ml of 0.15M NaCl by vortexing for 10 seconds. This dispersion was then added to the saline subphase. Surface tension lowering was monitored using a strip chart recorder connected to the electro-balance output.

SP-B(53-78): replica of the 26 residue carboxyl terminal region of native human SP-B (YSVILLDTLLGRMLPQLVCRLVLRCS; Pulmonary surfactant-associated protein B; UniProt P07988 253-278, looked up, fragment)
Surface Tension Maximum [1]: 50.4 dynes/cm | Surface Tension Minimum [1]: 1.1 dynes/cm | Surface tension Maximum (maximum bubble size) [2]: 56.7 (2.9) dyne/cm | Surface tension Minimum (minimum bubble size) [2]: 1.5 (0.6) dyne/cm | Mean Minimum Surface Tension, relative peptide concentration 1/2 [3]: 0.6 mN/m | Mean Minimum Surface Tension, relative peptide concentration 1/4 [3]: 0.5 mN/m | Mean Minimum Surface Tension, relative peptide concentration 1/8 [3]: 2.0 mN/m | Mean Minimum Surface Tension, relative peptide concentration 1/16 ([3]; 1/16 dilution of equimolar stock with lipid mixture): 14.5 mN/m | Mean Minimum Surface Tension, relative peptide concentration Equimolar [3]: 0.7 mN/m | Mean Minimum Surface Tension, relative peptide concentration 2% [3]: 0.1 mN/m | Adsorption (equilibrium adsorption surface tension) [4]: 47.0 dynes/cm

SP-B(69-78): synthesized SP-B peptide fragment, positions 69-78, 10 amino acids (LVCRLVLRCS; Pulmonary surfactant-associated protein B; UniProt P07988 269-278, looked up, fragment)
Surface Tension Maximum [1]: 65.0 dynes/cm | Surface Tension Minimum [1]: 6.3 dynes/cm | Surface tension Maximum (maximum bubble size) [2]: 64.0 (5.0) dyne/cm | Surface tension Minimum (minimum bubble size) [2]: 27.3 (0.5) dyne/cm | Mean Minimum Surface Tension, relative peptide concentration 1/2 [3]: 12.5 mN/m | Mean Minimum Surface Tension, relative peptide concentration 1/4 [3]: 13.8 mN/m | Mean Minimum Surface Tension, relative peptide concentration 1/8 [3]: 12.2 mN/m | Mean Minimum Surface Tension, relative peptide concentration Equimolar [3]: 13.3 mN/m | Mean Minimum Surface Tension, relative peptide concentration 2% [3]: 6.3 mN/m | Adsorption (equilibrium adsorption surface tension) [4]: 56.5 dynes/cm

B1: SP-B(1-78): complete SP-B surfactant protein having 78 amino acid residues, used as control (protein, UniProt P07988 201-279, looked up)
Pulmonary …: FPIPLPYCWLCRALIKRIQAMIPKGALAVAVAQVCRVVPLVAGGICQCLAERYSVILLDTLLGRMLPQLVCRLVLRCSM
modifications: Pulmonary surfactant-associated protein B
notes: complete SP-B surfactant protein having 78 amino acid residues, used as control
Surface Tension Maximum [1]: 44.0 dynes/cm | Surface Tension Minimum [1]: 0.3 dynes/cm | Surface tension Maximum (maximum bubble size) [2]: 50.6 (1.7) dyne/cm | Surface tension Minimum (minimum bubble size) [2]: 4.7 (0.3) dyne/cm | Mean Minimum Surface Tension, relative peptide concentration 1/2 [3]: 1.5 mN/m | Mean Minimum Surface Tension, relative peptide concentration 1/4 [3]: 4.5 mN/m | Mean Minimum Surface Tension, relative peptide concentration 1/8 [3]: 21.5 mN/m | Mean Minimum Surface Tension, relative peptide concentration Equimolar [3]: 1.5 mN/m | Mean Minimum Surface Tension, relative peptide concentration 2% [3]: 1.6 mN/m | Adsorption (equilibrium adsorption surface tension) [4]: 37.5 dynes/cm
